Each block holds one molecule with its values, some of them ahead of it. Where no end group is shown, it is not given here. TAMRA = carboxytetramethylrhodamine
Tests used:
free PCNA = assay: Binding of free PCNA to Cdt1 or CRL4^Cdt2 on anti-FLAG beads; parameters: species or system human; details: 2 h at 4°C, Western blotting, three independent experiments
Source text: FLAG-tagged Cdt1 (Cdt1-3FLAG) and CRL4^Cdt2 (Cdt2-3FLAG) were expressed in insect cells and purified on anti-FLAG resin (Fig 5A).

[1] = test system: Cdt1-3FLAG;PCNA (Homo sapiens;Homo sapiens); assay: pull-down (DNA beads, Western blot); details: PCNA preloaded by RFC with ATP; 301 fmol Cdt1 on […] fmol PCNA trimer; biotin-dT in the second strand; single nick by Nb.BbvCI; HBS: 10 mM Hepes pH 7.4, 0.15 M NaCl, 10 mM MgCl2, 0.2 mM EDTA, 0.05% Tween 20; loading with 2 mM ATP, 37 C 1 h; Cdt1/CRL4Cdt2 binding 4 C 1 h
[2] = test system: CRL4Cdt2 (WT): Cdt2-3FLAG with Cul4A, DDB1, Rbx1;PCNA (Homo sapiens;Homo sapiens); assay: pull-down (DNA beads, Western blot); details: PCNA preloaded by RFC with ATP; no Cdt1; 408 fmol Cdt2 on […] fmol PCNA trimer; biotin-dT in the second strand; single nick by Nb.BbvCI; HBS: 10 mM Hepes pH 7.4, 0.15 M NaCl, 10 mM MgCl2, 0.2 mM EDTA, 0.05% Tween 20; loading with 2 mM ATP, 37 C 1 h; Cdt1/CRL4Cdt2 binding 4 C 1 h
[3] = molecular target: T1, full-length human PCNA (recombinant, for peptide binding and crystallography) (human, UniProt P12004 1-261); assay: fluorescence polarisation; 1 nM labelled peptide mixed with PCNA at 0 to 2 μM; 10 mM Hepes pH 7.5, 125 mM NaCl, 0.5 mM TCEP; non-binding 96-well plates; triplicates; details: both partners purified
T1 construct: PCNA, human, full length; also called recombinant PCNA; source: E. coli Bl21 (DE3), purified as described (Hibbert & Sixma, 2012)

PCNA = assay: Co-immunoprecipitation of PCNA with FLAG-tagged Cdt2 constructs; format: cell-based, human; details: cross-linked cells, 3FLAG fusions, no UV
Source text: (§1) Before cell lysate preparation, cells were cross-linked.
(§2) Figure 3. […] HEK293 cells were transfected with plasmids expressing the indicated Cdt2 fused to a C-terminal FLAG tag, cross-linked, and precipitated with anti-FLAG antibodies (arrows). […] The bands in the blank lanes for Cul4A blotting correspond to the cross-reacting bands to pre-stained marker. […] HEK293 cells were transfected with the indicated plasmids and treated as in A. * indicates nonspecific bands derived from IgGs. (C) A schematic drawing of the Cdt2 domain structure highlighting the C-terminal PIP box and a sequence alignment of PIP boxes in various organisms. The alanine-changed PIP box mutant of Cdt2 was shown (PIP-3A) together with Cdt1 PIP box. (D) HEK293 cells were transfected with Cdt2^WT or PIP box mutant (Cdt2^PIP-3A) C-terminally fused to a FLAG tag, treated as in B, and Cdt2 was precipitated with anti-FLAG resin.
(§3) Control or Cdt2-FLAG expressing 293 cells that were UV irradiated (50 J/m^2), or not UV irradiated, or in the middle S phase (5 h after release from aphidicolon arrest) were fixed with 0.02% formaldehyde for 10 min, lysed using 0.1% Triton X-100-containing modified cytoskeleton (mCSK) buffer (10 mM Pipes, pH 7.9, 100 mM NaCl, 300 mM sucrose, 0.1% [vol/vol] Triton X-100, 1 mM phenylmethylsulfonyl fluoride, 10 mM β-glycerophosphate, 1 mMNa3VO4, 10 mM NaF), and then sonicated. After centrifugation (120,000g, Beckman Type 45Ti rotor, for 20 min at 4°C), the supernatants were mixed with anti-FLAG antibody-conjugated magnetic beads (M8823; Sigma-Aldrich) for 1 h at 4°C to obtain immunoprecipitates. The precipitate was washed with ice-cold 0.1% Triton X-100 containing mCSK buffer and subsequently suspended in SDS sample buffer.

[4] = test system: MCF7 cells, DNA-damage (CPD) sites; assay: Recruitment of GFP-Cdt2 constructs to DNA-damage sites in MCF7 cells; format: cell-based, human; details: MCF7, UV-C 50 J/m^2, GFP fusions; two independent experiments
Source text: Figure 2. The C-terminus of Cdt2 mediates Cdt2 recruitment to sites of damage. (A) A schematic drawing of the domain structure of Cdt2 and constructs used. (B) The C-terminal, but not the N-terminal, part of Cdt2 mediates recruitment to DNA damage sites. MCF7 cells transfected with the indicated plasmids were locally UV-C irradiated (50 J/m^2 through 5 μm pore diameter micropore filters), and recruitment of each Cdt2 construct to sites of damage was examined by staining with α-CPD antibody and GFP signal.
For Western blotting, whole-cell lysates were prepared by lysing cell pellets directly in SDS–PAGE buffer. For immunofluorescence, U2OS or HEK293 cells were fixed in 4% paraformaldehyde (PFA; WAKO) for 10 min, permeabilized in 0.25% (vol/vol) Triton X-100 in PBS, and stained with the indicated antibodies as described previously. […] For cyclobutane pyrimidine dimer (CPDs) staining, MCF7 and HeLa cells were fixed in 4% PFA for 10 min, permeabilized in 0.3% Triton X-100 in PBS, and then incubated in 0.5 N NaOH for 5 min for DNA denaturation before immunofluorescence. Alexa488-conjugated anti-mouse and […] anti-rabbit antibodies were used as secondary antibodies with Hoechst 33258 to visualize DNA. […] Protein levels were analysed by ImageJ software.
We used a method to induce DNA photoproducts within localized areas of the cell nucleus as described in Ishii et al (2010). To perform micropore UV irradiation, cells were cultured on cover slips, washed twice with PBS, and subsequently covered with an isopore polycarbonate membrane filter (Millipore) with a pore size of either 3 or 5 μm in diameter, and irradiated. UV irradiation was achieved using a UV lamp (SUV-16, As One, Japan) with a dose rate of 0.4 J/m^2·s, which was monitored with a UV radiometer (UVX Radiometer, UVP) at 254 nm, or with a UV box equipped with a UV-C lamp monitored with a VLX-3W radiometer (Vilber Lourmat) at 254 nm (CX-254 sensor). The filter was removed and cells were either fixed or cultured for the indicated time before fixation, and processed for immunofluorescence. […]

DDB1, Cul4A = assay: Co-immunoprecipitation of DDB1 / Cul4A with FLAG-tagged Cdt2 constructs; format: cell-based, human; details: anti-FLAG IP, cross-linked cells
Source text: as §1, §2, §3

T1 sequence (P12004 whole entry): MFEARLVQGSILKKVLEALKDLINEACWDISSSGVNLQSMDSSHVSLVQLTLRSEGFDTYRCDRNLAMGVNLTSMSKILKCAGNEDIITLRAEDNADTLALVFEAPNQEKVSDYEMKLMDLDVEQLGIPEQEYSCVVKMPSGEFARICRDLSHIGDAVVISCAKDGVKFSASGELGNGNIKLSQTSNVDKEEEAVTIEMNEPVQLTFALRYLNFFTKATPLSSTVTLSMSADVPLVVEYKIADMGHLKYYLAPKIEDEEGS

Molecule: CRL4^Cdt2: E3 ligase complex of Cdt2-3FLAG, DDB1, HA-Cul4, His-myc-Rbx1, purified from insect cells
- binding of free PCNA to protein beads (free PCNA): much less

Molecule: ncDNA beads (singly nicked circular pBluescript II KS(-))
- binding signal (Cdt1 per PCNA trimer) [1]: 2.04
- binding signal (Cdt2 per PCNA trimer) [2]: 2.57

B4: Cdt2^600–730: C-terminal 130 amino acids of Cdt2 (protein)
chain: KDSLGPTKSSKIEGAGTSISEPPSPISPYASESCGTLPLPLRPCGEGSEMVGKENSSPENKNWLLAMAAKRKAENPSPRSPSSQTPNSRRQSGKKLPSPVTITPSSMRKICTYFHRKSQEDFCGPEHSTEL
modifications: left off: 3FLAG, N-terminal, kept | 3NLS, N-terminal, state not stated | myc, N-terminal, state not stated
notes: C-terminal 130 amino acids of Cdt2
- interaction with PCNA (anti-FLAG IP) (PCNA): sufficient to mediate the interaction with PCNA

B5: Cdt2^1–700: Cdt2 with the C-terminal 30 amino acids deleted (protein)
chain: MLFNSVLRQPQLGVLRNGWSSQYPLQSLLTGYQCSGNDEHTSYGETGVPVPPFGCTFSSAPNMEHVLAVANEEGFVRLYNTESQSFRKKCFKEWMAHWNAVFDLAWVPGELKLVTAAGDQTAKFWDVKAGELIGTCKGHQCSLKSVAFSKFEKAVFCTGGRDGNIMVWDTRCNKKDGFYRQVNQISGAHNTSDKQTPSKPKKKQNSKGLAPSVDFQQSVTVVLFQDENTLVSAGAVDGIIKVWDLRKNYTAYRQEPIASKSFLYPGSSTRKLGYSSLILDSTGSTLFANCTDDNIYMFNMTGLKTSPVAIFNGHQNSTFYVKSSLSPDDQFLVSGSSDEAAYIWKVSTPWQPPTVLLGHSQEVTSVCWCPSDFTKIATCSDDNTLKIWRLNRGLEEKPGGDKLSTVGWASQKKKESRPGLVTVTSSQSTPAKAPRAKCNPSNSSPSSAACAPSCAGDLPLPSNTPTFSIKTSPAKARSPINRRGSVSSVSPKPPSSFKMSIRNWVTRTPSSSPPITPPASETKIMSPRKALIPVSQKSSQAEACSESRNRVKRRLDSSCLESVKQKCVKSCNCVTELDGQVENLHLDLCCLAGNQEDLSKDSLGPTKSSKIEGAGTSISEPPSPISPYASESCGTLPLPLRPCGEGSEMVGKENSSPENKNWLLAMAAKRKAENPSPRSPSSQTPNSRRQSGKKLPSPVT
modifications: left off: HA, N-terminal, state not stated | 3FLAG, C-terminal, kept
notes: Cdt2 with the C-terminal 30 amino acids deleted
- interaction with PCNA (anti-FLAG IP) (PCNA): loss of interaction with PCNA

Continued, in another order:

- Kd [3]: 0.036 ± 0.002 µM
Molecule: RRQTSMTDFYHSKR (p21 PIP box peptide) [p21 PIP box peptide]

- Kd [3]: 0.057 ± 0.003 µM
B1: Cdt2^PIP-TAMRA (704–717) (peptide)
peptide: {TAMRA}-SSMRKICTYFHRKS
notes: human Cdt2 PIP box, residues 704-717; also called Cdt2 PIP box peptide; source: synthetic peptide (in-house Fmoc synthesis)

- binding to DDB1 (and Cul4A) (DDB1, Cul4A): lost its ability to bind DDB1
B2: Cdt2^390–730: C-terminal Cdt2 construct (protein)
chain: LNRGLEEKPGGDKLSTVGWASQKKKESRPGLVTVTSSQSTPAKAPRAKCNPSNSSPSSAACAPSCAGDLPLPSNTPTFSIKTSPAKARSPINRRGSVSSVSPKPPSSFKMSIRNWVTRTPSSSPPITPPASETKIMSPRKALIPVSQKSSQAEACSESRNRVKRRLDSSCLESVKQKCVKSCNCVTELDGQVENLHLDLCCLAGNQEDLSKDSLGPTKSSKIEGAGTSISEPPSPISPYASESCGTLPLPLRPCGEGSEMVGKENSSPENKNWLLAMAAKRKAENPSPRSPSSQTPNSRRQSGKKLPSPVTITPSSMRKICTYFHRKSQEDFCGPEHSTEL
modifications: left off: 3FLAG, N-terminal, kept | 3NLS, N-terminal, state not stated | myc, N-terminal, state not stated
notes: C-terminal Cdt2 construct
- interaction with PCNA (anti-FLAG IP) (PCNA): still binds to PCNA
- recruitment to DNA-damage sites [4]: efficiently recruited to DNA-damage sites

- binding to DDB1 (and Cul4A) (DDB1, Cul4A): still able to bind DDB1
B3: Cdt2^1–417: Cdt2 N-terminal WD40 domain construct (protein)
chain: MLFNSVLRQPQLGVLRNGWSSQYPLQSLLTGYQCSGNDEHTSYGETGVPVPPFGCTFSSAPNMEHVLAVANEEGFVRLYNTESQSFRKKCFKEWMAHWNAVFDLAWVPGELKLVTAAGDQTAKFWDVKAGELIGTCKGHQCSLKSVAFSKFEKAVFCTGGRDGNIMVWDTRCNKKDGFYRQVNQISGAHNTSDKQTPSKPKKKQNSKGLAPSVDFQQSVTVVLFQDENTLVSAGAVDGIIKVWDLRKNYTAYRQEPIASKSFLYPGSSTRKLGYSSLILDSTGSTLFANCTDDNIYMFNMTGLKTSPVAIFNGHQNSTFYVKSSLSPDDQFLVSGSSDEAAYIWKVSTPWQPPTVLLGHSQEVTSVCWCPSDFTKIATCSDDNTLKIWRLNRGLEEKPGGDKLSTVGWASQKKKESR
modifications: left off: HA, N-terminal, state not stated | 3FLAG, C-terminal, kept
notes: Cdt2 N-terminal WD40 domain construct
- interaction with PCNA (anti-FLAG IP) (PCNA): lost most of its affinity for PCNA
- recruitment to DNA-damage sites [4]: no evidence for recruitment

- Kd [3]: 7.2 ± 0.2 µM
B6: Cdt1^PIP-TAMRA (1–14) (peptide)
peptide: MEQRRVTDFFARRR
modifications: also: TAMRA label, position not given here
notes: Cdt1 N-terminal PIP box peptide, residues 1-14; also called Cdt1 PIP box peptide; source: synthetic peptide (in-house Fmoc synthesis)
